How the values were obtained:
[1] = molecular target: T1, GST-KH (Bicc1 KH domains) (UniProt Q99MQ1); assay: EMSA; conditions: EMSA buffer 1X: 10 mM Tris-HCl pH 8.0, 100 mM KCl, 2.5 mM MgCl2, 2.5% glycerol (slightly below 1X in some mixes); about 1 mM DTT, 0.05 ug/uL yeast tRNA; 50 nM …
T1 sequence (Q99MQ1 whole entry, looked up): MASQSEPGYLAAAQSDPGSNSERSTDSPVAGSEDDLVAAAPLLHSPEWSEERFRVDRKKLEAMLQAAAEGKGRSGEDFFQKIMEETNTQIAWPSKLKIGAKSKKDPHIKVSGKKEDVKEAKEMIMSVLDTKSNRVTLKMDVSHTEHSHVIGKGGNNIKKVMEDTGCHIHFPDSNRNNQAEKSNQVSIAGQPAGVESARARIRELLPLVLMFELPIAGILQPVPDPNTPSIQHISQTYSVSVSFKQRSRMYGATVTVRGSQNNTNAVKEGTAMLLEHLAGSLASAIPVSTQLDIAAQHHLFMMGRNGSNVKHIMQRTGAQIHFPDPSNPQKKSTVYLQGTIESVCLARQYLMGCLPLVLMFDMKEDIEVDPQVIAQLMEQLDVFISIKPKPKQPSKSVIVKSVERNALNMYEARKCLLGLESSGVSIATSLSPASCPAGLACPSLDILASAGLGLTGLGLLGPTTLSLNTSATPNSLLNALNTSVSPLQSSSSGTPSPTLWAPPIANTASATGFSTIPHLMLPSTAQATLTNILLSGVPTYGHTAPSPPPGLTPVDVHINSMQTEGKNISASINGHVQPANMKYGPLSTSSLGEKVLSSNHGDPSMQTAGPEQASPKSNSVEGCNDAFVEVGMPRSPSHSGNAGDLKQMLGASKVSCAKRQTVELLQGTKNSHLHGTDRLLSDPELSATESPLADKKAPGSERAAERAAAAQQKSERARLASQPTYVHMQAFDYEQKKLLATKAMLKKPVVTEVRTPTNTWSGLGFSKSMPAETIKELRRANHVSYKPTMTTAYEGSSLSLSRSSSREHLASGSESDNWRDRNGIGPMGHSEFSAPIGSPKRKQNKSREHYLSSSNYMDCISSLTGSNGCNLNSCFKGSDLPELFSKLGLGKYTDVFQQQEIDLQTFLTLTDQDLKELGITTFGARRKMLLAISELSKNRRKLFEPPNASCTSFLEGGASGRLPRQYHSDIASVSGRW

[2] = molecular target: T1, GST-KH (Bicc1 KH domains); assay: competition; conditions: EMSA buffer 1X: 10 mM Tris-HCl pH 8.0, 100 mM KCl, 2.5 mM MgCl2, 2.5% glycerol (slightly below 1X in some mixes); about 1 mM DTT, 0.05 ug/uL yeast tRNA; 50 nM …

Sequence “GAAGAAAGACGUGACCUGAAUGAUGUGCAUCGGGUCAAGAGAGCAGAAUGUCUGGGCAACAGGCUCAGG / CTGAGCCTGTTGCCCAGAC [Dand5 3'UTR66-110 WT Tag#1 annealed to Probe #1]” has a Kd [1] of 0.103 µM.

With “GAAGAAAGACGUGACCUGAAUGAUGUGCAUCGGGUCAAGAGAGCAGAAACACGUACCGAGAUGGUGCGC / CGCACCATCTCGGTACGTG [Dand5 3'UTR66-110 WT Tag#2 annealed to Probe #2]” the Kd [1] was 0.109 µM.

For “GAAGAAAAAGGUGACCUGAAUGAUGUGCAUCGGGUCAAGAGAGCAGAA [Dand5 3'UTR66-110 Mut untagged competitor]”, the IC50 [2] was over 1 µM.
